Test results reported in patent JP2015097496A (dated 2015).
Substitutions are numbered along the chain they refer to. In names and notes the source's numbering stands. Blank lines part the entries; values can stand above or below the binder they belong to.

What was measured:
[1] = target: T1, Robo1 IG5-2ドメイン(B5209B抗体が認識するイムノグロブリン様ドメインの5番目) (Homo sapiens (Human), UniProt Q9Y6N7 455-543); assay: co-crystal structure of scFv and IG5-2
T1 construct: Antigen fragment of Robo1 used in ITC and in the co-crystal structure
T1 sequence: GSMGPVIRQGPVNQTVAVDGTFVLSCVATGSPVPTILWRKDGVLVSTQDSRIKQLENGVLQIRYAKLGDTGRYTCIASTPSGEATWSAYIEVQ

[2] = target: T1, Robo1 …; assay: ITC with molecular dynamics interpretation
[3] = target: T1, Robo1 …; assay: ITC, thermodynamic parameters

- binding result [1]: binds
B1: B5209B 一本鎖抗体(scFv) 野生型 (scFv)
scFv: MAEVQLVESGGGVVQPGGSLKLSCAASGFTFSTYDMSWVRQTPDKRLELVATINSNGGSTYYPDSVKGRFTSSRDNAKNILYLQMSSLKSEDTAMYYCAREALLRPPYYALDYWGQGTSVTVSSAGGGGSGGGGSGGGGSGGGGSDILDIQMTQSPASLSASVGETVTITCGASENIYGALTWYQRKQGKSPQLLIYGAINLADDKSSRFSGSGSGRQYSLKISSLHPDDVATYYCQNVLSTPFTFGSGTKLEIKAAGHHHHHH
notes: Expressed in E. coli Origami2(DE3) from pRA2; also called B5209B scFv; WT

- binding result [2]: binds
B2: B5209B scFv HP103A変異体 (scFv)
scFv: QLVESGGGVVQPGGSLKLSCAASGFTFSTYDMSWVRQTPDKRLELVATINSNGGSTYYPDSVKGRFTSSRDNAKNILYLQMSSLKSEDTAMYYCAREALLRPAYYALDYWGQGTSVTVSSGGGGSGGGGSGGGGSGGGGSDIQMTQSPASLSASVGETVTITCGASENIYGALTWYQRKQGKSPQLLIYGAINLADDKSSRFSGSGSGRQYSLKISSLHPDDVATYYCQNVLSTPFTFGSGTKLEIKHHHHHH

- binding result [3]: binds
B3: B5209B scFv LY30A変異体 (scFv)
scFv: B2 scFv with A103P, Y170A
